Data: the DeepSol protein solubility set

assay: soluble on expression in E. coli; label from the status in PepcDB or PDB records

Soluble on expression in E. coli, not soluble:
MGSDKIHHHHHHMEKMLYTAASGAVRILEAQSIRANNLANAETAGFKADLERVNAVPLVAQGNSLNTRVMAQTESSGFSQQSGVINPTGRSLDLAIRDRGLFSVAVDGAEAYTRSGAIETNAEGQLTIDGRPVLGIDGPIALPEYKDVFVGEDGTVSVLPAEGGIIEEVGRLKLVNPDFALMQKGQDGLLYRRDGQAVPQDEGVLVDSGFLESSNVQAVSELIASMDLSRQFEIQVKLMKSAEKLAEAGNRLLGNV
MGSDKIHHHHHHMEKRQSIKDIEANGDVRGLFLLGAATLNQARNGPFWRLELRDATGTMEAKIWSPQSQAYPDLAPGQIVDLEGRSGTYRDRVEVTVERLRTLGEAEQASLDISQFLPASERPAAEMLEELERLCREVFTHAPWRKFVLGVLRDDDVRPRLLVAPAAKAVHHAFVGGLVEHILSVTRLCLHLAEHYPELDRQALVAGAIFHDIGKVWELTGGLANDYSDEGRLLGHIHIGLERIEPHLRKSGLEPELVMHFKHLILSHHGELEYGSPKRPKTAEAMVLHYADNIDAKMAQMRGLFANMGEGETGWSPYQNTLQRFLYRPARTPEPVATTRRRRGTPEVEQCSLLSKA
MGSDKIHHHHHHMELNLQTAELALREASESNPGAWADHSRFVAEACKNIASHCKDLSSEQAYIFGLLHDIGRYAGVSSERHLIDGYRYCMERGWEKAAQICISHAFMIQDIATSIGVFDVSDEDYLFMKEFVANAVYDDYDRLVQLCDALAMPSGFCLLEKRFVDVTMRYGVHPATIDRWKKILEIKEQFENQIGCSIYSLLPGIVENSFR
MGSDKIHHHHHHMELQDKYIRFDWAVKRLLRHKANFGVLEGFLTVLIGDEIHIVEILESEGNQQTENDKFNRVDIKALNSKNEIVIIEIQNTRELYYLERILYGVAKAITEHISLGETYYKVKKIYSISILYFDIGHGTDYLYHGQNIFKGVHTGDFLQVSTREKDAIVPRMPSEIYPEYFLIRVNEFNKVAVTPLEEWIEYLKTGIIRPDTTAPGLGEAREKLKYYSMTPQERHAYDEHLSALMIQNDVLDSAKLEGKIEGKIEGKIEGRLEGRAEGREEGREEGIKEGVLRNARRMKEKGFSTEDIMEITGLTFEEVSQL
MGSDKIHHHHHHMELVDKDLRSIQETRNLIRKAKEAQQVLATFSQKQIDAIVQAVSEATFNQREKLAKMANEETGFGIYEDKIIKNAFASKVVYDEMKDKATVGVIHDDAAKKVTEIAVPVGVIAGLIPSTNPTSTVIYKALISLKAANSIVFSPHPNALKSIIETVEIIQKAAIAAGAPEGCVSVIKTPTMQATSELMKNKETNLILATGGNAMVKAAYSSGTPAIGVGPGNGPAYIERSANVPHAVKQIMDSKTFDNGTICASEQSIIVETVNREAVKEELIKQGAYFLSPAEADKLAKFILRPNGTMNPQIVGRSVQHIASLVGLSIPKDRRLIVAEETHVGLKYPFSREKLAPIIAFYTVENWEAACALSIEILKGEGAGHTMGIHTENKEVIREFGLRKPVSRLLVNTSGTLGGIGASTNLVPALTLGCGAVGGSSTSDNIGVENLFNLRRVAYGVRDLEEIRQEFGQTSTTSVATSCETTNQEELVNAVVAQVLARLN
MGSDKIHHHHHHMENDFPLKGKTVLVTRNKAQAASFQQKVEALGGKAVLTSLITFRRALPNDVAEQVREDLAAPGWLVFTSVNGADFFFSYLKENQLILPAHKKIAAVGEKTARRLKMHNVSVDVMPQEYIAEQLADALKQHAEPGETITVMKGNLSRDVIKQELVPLGFEVKEWVLYETIPDEEGIEALKDAAGQYSFDYVTFTSSSTVHTFMHVLGEELKKWKANGTACISIGPLTNDALLTYGITSHTPDTFTIDGMLELMCSMSREEERI
MGSDKIHHHHHHMEPIMRNPEDALLDSWHQNAQAWIDAVRHGAIESRRQVTDQAILLAILGRQPERVLDLGCGEGWLLRALADRGIEAVGVDGDRTLVDAARAAGAGEVHLASYAQLAEAKVPVGKDYDLICANFALLHQDIIELLSAMRTLLVPGGALVIQTLHPWSVADGDYQDGWREESFAGFAGDWQPMPWYFRTLASWLNALDMAGLRLVSLQEPQHPQSAVPQSLLMVAERH
MGSDKIHHHHHHMEPTFQPSRSAIPVLSVSGVGKTYAEPVLADVTLTLAPGEALALTGENGAGKSTLSKIIGGLVDPTTGTMQLGGQAYAPASRTQAEALGVRMVMQELNLLPTLTVAENLFLNRLPRRFGIIDRARLHDDAQAAMARVGLDAIDPDTPVGALGIGHQQMVEIARNLIGDCRVLILDEPTAMLTAREVELLFEQIDRLKAHGVAIVYISHRLDELARVAERVAVLRDGRLVHVGDMAATTSDGLVTLMVGREIGEHIDLGPRRIGAPRLAVSGMTRGTAVQDVSLEVRSGEIFGISGLIGAGRTELLRLIYGADTPDAGMISVGDPLKPARIASPVDAVRHGIALITEDRKGEGLLLSQSVTSNVSLGQLEQLARGGIVNTARETALAEQQIDALRIRTHGAAQPVGELSGGNQQKVVIGRWLARDMGVLLFDEPTRGIDVGAKFEIYTLMGALARDGRALVVVSSDLRELMLICDRIGVMSAGRMTAVFERGNWTQDALLAAAFAGFGRDALPEGARHLDAQAAPRAASGTSTTGRQQ
MGSDKIHHHHHHMERLPTTPHDAVFRQMLMQKEVARDFLAIHMPEDFLAICDLDSLKLESGSFVEDNLRSRYSDILYSLHTQHGPGYVYALIEHQSKSDRLMAFRLMRYAIAAMQRHLDAGHDTLPLVVPILFYHGPESPWPYSLNWHNMFVKPDMAKALYSRDFALVDLTTMPDNQLLQHRRIAMLELLQKHIRQRDLSELLDPLITLLTQDHLTDAQLSVLINYMLKAGNAAEPGALIRQLAQGAPQYKEQLMTIAEWLEEKGRTEGLQKGLQKGLEQGLAQGREAEARAIARKMLANGLEPGLIASVTGITPEELSTLSH
MGSDKIHHHHHHMESIENSYGRLLLESQLPDSAKQLAQPLKSVVILRGKMICQRCHYQLDEEARLPSGAYYCRFCLVFGRNQSDKLLYAIPPMHFPKGNYLVWGGQLTAYQEMISQQLLINMQNQKTTLVHAVTGAGKTEMIYAAIEAVINTGGWVCIASPRVDVCVEVATRLSQAFSCSICLMHAESLPYQRAPIIVATTHQLLKFHKAFDLLIIDEVDAFPFVNNIQLHYAASQALKEGGAKILLTATSTRTLERKVNKGEVVKLTLARRFHNRPLVIPKFIRSFNLFKMIHRQKLPLKILKYLKKQRKTGYPLLIFLPTIIMAESVTAILKELLPAEQIACVSSQSQNRKEDITAFRQGKKTILITTSILERGVTFPQIDVFVLGSHHRVYSSQSLVQIAGRVGRSIDRPDGTLYFFHEGISKAMLLARKEIKEMNYKGYSHDLSTMSTN
MGSDKIHHHHHHMETRNLQRNPILLVHGITDTEAVFDQMAAYLRQMGWTVYTLNLVPNNGEAPLNVLAQQVADYVAANITPEQPFDLVGFSMGGIVSRYYVQRLGGISHVQRFVTISSPHYGTVIAYASQRPGCVQMRPNSLFLQDLNHDVQMLEELNFTSIWTPYDLMIVPTHSSKMPVGKELSIPVALHSWMLRDVRSIEAVAAALAEPINCDRRFEYIPNSSIHN
MGSDKIHHHHHHMEYGHHARPDSKRPLDEGSPAAAGLTSKKANEALTRNRELTTVLVKNLPKSYNQNKVYKYFKHCGPIIHVDVADSLKKNFRFARIEFARYDGALAAITKTHKVVGQNEIIVSHLTECTLWMTNFPPSYTQRNIRDLLQDINVVALSIRLPSLRFNTSRRFAYIDVTSKEDARYCVEKLNGLKIEGYTLVTKVSNPLEKSKRTDSATLEGREIMIRNLSTELLDENLLRESFEGFGSIEKINIPAGQKEHSFNNCCAFMVFENKDSAERALQMNRSLLGNREISVSLADKKPFLERNEVKRLLASRNSKELETLICLFPLSDKVSPSLICQFLQEEIHINEKDIRKILLVSDFNGAIIIFRDSKFAAKMLMILNGSQFQGKVIRSGTINDMKRYYNNQQNHSMKHVKPSCINMMEKGPNLQVKKKIPDKQEQMSNDDFRKMFLGE
MGSDKIHHHHHHMFALAASNMILRGDGKANLHQSSCFMTDFQDLIKNPKPETGLKRPNVGFLNPPYAQSKSDAELHELYFVKEMLDMLAEGGTGIAIIPVSCVIAPSKAKSEIVKYHRLKAVMSMPSELFYPVGTVTCIVVFEAHKPHFQTVVIDPDTQEEISTKKACRKTWFGYWRDDGFEKTKHLGRIDLYDRWQGIKARWLEHYLNNEVHTGESVTAFVTDNDEWVAEAYLETDYSKITRADFEQVVREFALFQLLGAEVGPTENLDNESYEDDDNNDFGDDE
MGSDKIHHHHHHMFDLHVHSVFSDGELIPSEIARRMYAAGNKGFAITDHADFTNIQDILAKLTRIKEHMESYEAKFLVGVEITHVPPSLIGKAVELAWKEGAEIVVVHGETVAEPVKEGTNLAALSEEITILAHPGIMSEEEAELARENGIYVEISARRGHCLGNGRVARLAEKYGFELVINTDMHSPSDIINDSTAERILKGAGVKEWKSVLENNEKLFRKLRK
MGSDKIHHHHHHMFDVAARSGSFKQASQELGVTQSAVTRQIQTLEEQLEVRLFQRDNRVHSLTPVGLELAPQIEQIFEQLERTIERTRNLSDNTTTQLTVAISSERLRFWLAAKLADFHSLYPHIQLSFSRCNEYFINESAAEMASAIQHQSWDLAIGYGKVTDKHIQSIVLQKNQMLPVSAIKTNNSPFQLPWLINPENPDHQAMLKTYSQQLKSTRIIHCNDVQMSLDLSSAEQAVALIDSSLITPGLSNLKVYNDSAQPCQYPLSIYYRKRQRQPVALVAFIKWLQMIIS
MGSDKIHHHHHHMFDWNDLRFFLELQRSGRLLTAAKRLNTTHSTVARHIESIEQSLGTALFVQHAQGYELTPSGQALLKHAEAMENVALLAQEEITQAITPLGKIRLGVTEGIGIMFFTPRMNALFERYPGLEVELVAVPRFVSILNREAEISIHLERPNADLLITRKLTDYRLALYASQAYLDRAPPLRHREDLARHSWIGYVDDLLFSQELLFLNSFCRVPNVVFRSTSVIAQQAAARAGLGIAVLPNYMARHDPTLVRVLPGETIQRSYWICTRRELHKSVRLRVVWDYLLALCAAEQSELLAE
MGSDKIHHHHHHMFEPFPGNYVWNLGINLALIAGGNHGELDEVCRPVREAAKAGADAGSALLFDSWIAVADQVTRNAERDEAEGFLLSAGAKYLRASGYYLGAERLQSRDYAPRWVAYDKGLELYHKGSALSGLHVDKVEIPYEGSSYPAIFVHDGSGTPRPTLVSVNGLDSMKEQVNMAGHGAVNLARGMNTLFLDQPGTGEAIRKRNLPAVFDAERWGSPAFDYLLTRSDVIHSQIGIFGLSFGGYHAPRIAANDPRYALCAVMGANHVWGQRQRERVANEGENPVPHYWDHVMWVFGIDDQAAFLEYADQITLDGQVEKIRVPFLITHGENDRQIPAYNAQMSYDQAVNSPKRTLRIFTRADFEVEHCGADNGTGMRDYIADWCAQTFAEMAGNKG
MGSDKIHHHHHHMFERDNREDEAAELVTLAAKLKALMKPDVARRVEPDLEALLEAEGLAMRPGPRPMIDTDLVQELRQAMITCSKVKLRYRNRRTRQANERIVHPYAFLHGHRNYLIAWHEHPKANKVALFALPHIEAVDATGEPFVRDPGFQLQDFAARSFGLFQDEPFQTAWKFAPDAADDAAEFLFHPSQAQERLPDGSLIVRFVAASELEMAWHLYAWGDKVEVLEPQKLAEMVNPGRVAWPALP
